Assay results: patent US20190233823 (AEROVIRUS TECHNOLOGIES INC., published 2019)

B1: APT3Histo1 (ssDNA)
DNA: GCCTGTTGTGAGCCTCCTAACCGCACGTGGGTATTCTAAGTGCGGTAGCTCAATGGTGAGCGATGAGCATCATGCTTATTCTTGTCTCCC
B2: APT3Cooc3 (ssDNA)
DNA: GCCTGTTGTGAGCCTCCTAACTAGCTCGTAGAAAAAAAATATAGCGTGTGCTGGGACTGCTCGGGATTGCGGACACATGCTTATTCTTGTCTCCC
B3: APT3Cooc10 (ssDNA)
DNA: GCCTGTTGTGAGCCTCCTAACGGGTATGACTACAGATGCAGGGCGGCCTGTAGCCTTGCATTGACAAGGGCATGCTTATTCTTGTCTCCC

Each binder was assayed against P97 cilium adhesin ectodomain fragment (P97 peptidic complex, SELEX target section 768-925) (Mycoplasma hyopneumoniae) (assay: ELONA). Details: tags: His (histidine labelled, Ni-NTA captured).
Protocol: Selected ssDNA molecules from each individual clone were biotinylated using the B-T3 which is same sequence with 5′ primer (T3 primer), and Klenow fragment (2 unit/ml). To prepare single stranded biotin conjugated APT3Cooc10 aptamer for the reverse screening. T3 Primer was Biotin labelled. A 96-well flat bottom ELISA plate was prepared by coating each well with 100 μl of streptavidin (100 μg/ml) diluted in 0.1 M NaHCO₃ following by a 37° C. overnight incubation. Following several washings with PBS, wells were blocked with 200 μl of PBS containing 1% BSA for 2 hours at room temperature and subsequent washing three times with PBS-T (10 mM PBS containing 0.05% (v/v) Tween-20). Thereafter, 100 μl of 2.5 pmole/100 μl biotinylated-ssDNA were added to the wells and incubated at 37° C. for 2 hours followed by washing four times with PBS-T. T3 primer was used as negative control. Following washing, 100 μl of fluid containing 2 μg histidine labelled P97 peptidic complex were added to the indicated wells and incubated at 37° C. for 2 hours. The wells were then washed for 4 times with PBS-T. The reverse screening assay was completed using the DAKO Mycoplasma Hyopneumoniae ELISA tests (K004311-9 kit, Oxoid Ltd, UK).

Binding result, binds:
B1, B2, B3
